From the array DNA melting data of Ke et al.

Experiment: melting temperature; melt of duplexes
Settings: sodium 0.0675 M; strand 1 µM

Row | Substance | Tm
1 | CGACGTGCCACATGTGCTG+CAGCACATCAGGCACGTCG (((((((((..((((((((+))))))))..))))))))) | 53.2 °C
2 | CGACGTGCTCTATGTGCTG+CAGCACATCTCGCACGTCG ((((((((...((((((((+))))))))...)))))))) | 47.1 °C
3 | CGACGTGCGCAATGTGCTG+CAGCACATGTAGCACGTCG ((((((((...((((((((+))))))))...)))))))) | 57.5 °C
4 | CGACGTGCGCTATGTGCTG+CAGCACATACAGCACGTCG ((((((((..(((((((((+)))))))))..)))))))) | 52.1 °C
5 | CGACGTGCGCAATGTGCTG+CAGCACATATGGCACGTCG ((((((((...((((((((+))))))))...)))))))) | 50.7 °C
6 | CGACGTGCCTAATGTGCTG+CAGCACATTAGGCACGTCG (((((((((((((((((((+))))))))))))))))))) | 63.6 °C
7 | CGACGTGCACGATGTGCTG+CAGCACATTGGGCACGTCG ((((((((.(.((((((((+)))))))).).)))))))) | 56.4 °C
8 | CGACGTGCTCTATGTGCTG+CAGCACATTGGGCACGTCG ((((((((.(.((((((((+)))))))).).)))))))) | 53.4 °C
9 | CGACGTGCACTATGTGCTG+CAGCACATCACGCACGTCG ((((((((...((((((((+))))))))...)))))))) | 43.3 °C
10 | CGACGTGCAAAATGTGCTG+CAGCACATCTAGCACGTCG ((((((((.(.((((((((+)))))))).).)))))))) | 49.5 °C
11 | CGACGTGCCCTATGTGCTG+CAGCACATCACGCACGTCG ((((((((...((((((((+))))))))...)))))))) | 46.4 °C
12 | CGACGTGCTCCATGTGCTG+CAGCACATGGAGCACGTCG (((((((((((((((((((+))))))))))))))))))) | 66.1 °C
13 | CGACGTGCTGTATGTGCTG+CAGCACATCTTGCACGTCG ((((((((...((((((((+))))))))...)))))))) | 49.9 °C
14 | CGACGTGCGGAATGTGCTG+CAGCACATATAGCACGTCG ((((((((...((((((((+))))))))...)))))))) | 55 °C
15 | CGACGTGCCTGATGTGCTG+CAGCACATATAGCACGTCG ((((((((...((((((((+))))))))...)))))))) | 49.8 °C
16 | CGACGTGCAGAATGTGCTG+CAGCACATCAAGCACGTCG ((((((((...((((((((+))))))))...)))))))) | 50.6 °C
17 | CGACGTGCTTGATGTGCTG+CAGCACATGCAGCACGTCG (((((((((..((((((((+))))))))..))))))))) | 51.8 °C
18 | CGACGTGCGCAATGTGCTG+CAGCACATAGCGCACGTCG ((((((((((.((((((((+)))))))).)))))))))) | 61.2 °C
19 | CGACGTGCCACATGTGCTG+CAGCACATAGAGCACGTCG ((((((((...((((((((+))))))))...)))))))) | 49.4 °C
20 | CGACGTGCCGTATGTGCTG+CAGCACATCAAGCACGTCG ((((((((...((((((((+))))))))...)))))))) | 49.3 °C
21 | CGACGTGCGCGATGTGCTG+CAGCACATAGTGCACGTCG ((((((((.(.((((((((+)))))))).).)))))))) | 53.7 °C
22 | CGACGTGCAGCATGTGCTG+CAGCACATGTGGCACGTCG ((((((((..(((((((((+)))))))))..)))))))) | 55.5 °C
23 | CGACGTGCTTGATGTGCTG+CAGCACATCCGGCACGTCG ((((((((..(((((((((+)))))))))..)))))))) | 54.6 °C
24 | CGACGTGCGTCATGTGCTG+CAGCACATGTGGCACGTCG ((((((((..(((((((((+)))))))))..)))))))) | 54.8 °C

Row | Substance | Tm
25 | CGACGTGCGTGATGTGCTG+CAGCACATGTCGCACGTCG (((((((((..((((((((+))))))))..))))))))) | 55.2 °C
26 | CGACGTGCGGTATGTGCTG+CAGCACATATGGCACGTCG ((((((((..(((((((((+)))))))))..)))))))) | 54 °C
27 | CGACGTGCGCAATGTGCTG+CAGCACATAGTGCACGTCG ((((((((.(.((((((((+)))))))).).)))))))) | 51.6 °C
28 | CGACGTGCCTAATGTGCTG+CAGCACATATAGCACGTCG ((((((((...((((((((+))))))))...)))))))) | 49.6 °C
29 | CGACGTGCCAGATGTGCTG+CAGCACATCATGCACGTCG ((((((((..(((((((((+)))))))))..)))))))) | 53.4 °C
30 | CGACGTGCGAAATGTGCTG+CAGCACATGACGCACGTCG (((((((((..((((((((+))))))))..))))))))) | 55 °C
31 | CGACGTGCGGTATGTGCTG+CAGCACATGGTGCACGTCG ((((((((...((((((((+))))))))...)))))))) | 51.5 °C
32 | CGACGTGCACCATGTGCTG+CAGCACATAAGGCACGTCG ((((((((...((((((((+))))))))...)))))))) | 44.1 °C
33 | CGACGTGCAAGATGTGCTG+CAGCACATTCAGCACGTCG ((((((((...((((((((+))))))))...)))))))) | 50.7 °C
34 | CGACGTGCGGAATGTGCTG+CAGCACATCATGCACGTCG ((((((((...((((((((+))))))))...)))))))) | 51.9 °C
35 | CGACGTGCTTAATGTGCTG+CAGCACATCAGGCACGTCG ((((((((.(.((((((((+)))))))).).)))))))) | 50.8 °C
36 | CGACGTGCGAAATGTGCTG+CAGCACATTGCGCACGTCG (((((((((.(((((((((+))))))))).))))))))) | 60.2 °C
37 | CGACGTGCGTTATGTGCTG+CAGCACATCCCGCACGTCG (((((((((..((((((((+))))))))..))))))))) | 51.7 °C
38 | CGACGTGCCAAATGTGCTG+CAGCACATCTTGCACGTCG ((((((((.(.((((((((+)))))))).).)))))))) | 48.7 °C
39 | CGACGTGCAAGATGTGCTG+CAGCACATGCGGCACGTCG ((((((((...((((((((+))))))))...)))))))) | 50.2 °C
40 | CGACGTGCTCAATGTGCTG+CAGCACATCACGCACGTCG ((((((((...((((((((+))))))))...)))))))) | 48.1 °C
41 | CGACGTGCAAGATGTGCTG+CAGCACATCCTGCACGTCG (((((((((.(((((((((+))))))))).))))))))) | 56.5 °C
42 | CGACGTGCCCCATGTGCTG+CAGCACATCGAGCACGTCG ((((((((.(.((((((((+)))))))).).)))))))) | 48.7 °C
43 | CGACGTGCGTGATGTGCTG+CAGCACATGGTGCACGTCG ((((((((...((((((((+))))))))...)))))))) | 47.8 °C
44 | CGACGTGCCAAATGTGCTG+CAGCACATATGGCACGTCG ((((((((((.((((((((+)))))))).)))))))))) | 56.9 °C
45 | CGACGTGCGGGATGTGCTG+CAGCACATGCAGCACGTCG ((((((((.(.((((((((+)))))))).).)))))))) | 57.2 °C
46 | CGACGTGCGTGATGTGCTG+CAGCACATCGAGCACGTCG ((((((((..(((((((((+)))))))))..)))))))) | 58.6 °C
47 | CGACGTGCCCAATGTGCTG+CAGCACATCCAGCACGTCG ((((((((...((((((((+))))))))...)))))))) | 49 °C
48 | CGACGTGCTCAATGTGCTG+CAGCACATCCCGCACGTCG ((((((((...((((((((+))))))))...)))))))) | 48 °C

Row | Substance | Tm
49 | CGACGTGCATCATGTGCTG+CAGCACATAACGCACGTCG ((((((((.(.((((((((+)))))))).).)))))))) | 48.3 °C
50 | CGACGTGCAATATGTGCTG+CAGCACATCTTGCACGTCG ((((((((((.((((((((+)))))))).)))))))))) | 54.8 °C
51 | CGACGTGCCGCATGTGCTG+CAGCACATGAAGCACGTCG ((((((((..(((((((((+)))))))))..)))))))) | 53.8 °C
52 | CGACGTGCGGCATGTGCTG+CAGCACATAATGCACGTCG ((((((((...((((((((+))))))))...)))))))) | 51.1 °C
53 | CGACGTGCCCTATGTGCTG+CAGCACATGAAGCACGTCG ((((((((...((((((((+))))))))...)))))))) | 49 °C
54 | CGACGTGCATTATGTGCTG+CAGCACATGTAGCACGTCG ((((((((...((((((((+))))))))...)))))))) | 49.4 °C
55 | CGACGTGCCCCATGTGCTG+CAGCACATGAAGCACGTCG ((((((((..(((((((((+)))))))))..)))))))) | 52 °C
56 | CGACGTGCATGATGTGCTG+CAGCACATCTGGCACGTCG ((((((((..(((((((((+)))))))))..)))))))) | 56.1 °C
57 | CGACGTGCGTGATGTGCTG+CAGCACATGAAGCACGTCG ((((((((.(.((((((((+)))))))).).)))))))) | 54 °C
58 | CGACGTGCGTCATGTGCTG+CAGCACATTTGGCACGTCG ((((((((...((((((((+))))))))...)))))))) | 48.7 °C
59 | CGACGTGCGAGATGTGCTG+CAGCACATATGGCACGTCG ((((((((.(.((((((((+)))))))).).)))))))) | 53.3 °C
60 | CGACGTGCACGATGTGCTG+CAGCACATCTGGCACGTCG ((((((((..(((((((((+)))))))))..)))))))) | 53.6 °C
61 | CGACGTGCGGTATGTGCTG+CAGCACATTTAGCACGTCG ((((((((...((((((((+))))))))...)))))))) | 54.5 °C
62 | CGACGTGCTGCATGTGCTG+CAGCACATTCCGCACGTCG ((((((((.(.((((((((+)))))))).).)))))))) | 49.3 °C
63 | CGACGTGCCGGATGTGCTG+CAGCACATAATGCACGTCG ((((((((...((((((((+))))))))...)))))))) | 48.6 °C
64 | CGACGTGCCTCATGTGCTG+CAGCACATATGGCACGTCG (((((((((..((((((((+))))))))..))))))))) | 54 °C
65 | CGACGTGCGTGATGTGCTG+CAGCACATGTTGCACGTCG ((((((((...((((((((+))))))))...)))))))) | 50 °C
66 | CGACGTGCACGATGTGCTG+CAGCACATGCAGCACGTCG ((((((((...((((((((+))))))))...)))))))) | 45.9 °C
67 | CGACGTGCCACATGTGCTG+CAGCACATCCGGCACGTCG (((((((((..((((((((+))))))))..))))))))) | 52.6 °C
68 | CGACGTGCACCATGTGCTG+CAGCACATGAAGCACGTCG ((((((((..(((((((((+)))))))))..)))))))) | 51 °C
69 | CGACGTGCCCGATGTGCTG+CAGCACATCACGCACGTCG ((((((((..(((((((((+)))))))))..)))))))) | 52.2 °C
70 | CGACGTGCGTCATGTGCTG+CAGCACATAGTGCACGTCG ((((((((...((((((((+))))))))...)))))))) | 45.9 °C
71 | CGACGTGCAGAATGTGCTG+CAGCACATATAGCACGTCG ((((((((...((((((((+))))))))...)))))))) | 50.4 °C
72 | CGACGTGCGCAATGTGCTG+CAGCACATAAGGCACGTCG ((((((((...((((((((+))))))))...)))))))) | 50.9 °C
